Experimental data: patent publication US20130231261

Target: T1, RNase H (UniProt P0A7Y4)
T1 sequence: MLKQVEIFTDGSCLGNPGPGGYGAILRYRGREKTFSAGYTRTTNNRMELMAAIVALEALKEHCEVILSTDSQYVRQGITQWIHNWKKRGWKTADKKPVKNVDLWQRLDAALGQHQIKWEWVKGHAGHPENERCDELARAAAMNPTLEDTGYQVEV
Test: flow

| Sequence | binding (fluorescence units) (no RNA, equivalent to bead background of 44 units) | binding (fluorescence units) (bead fluorescence 4x over no-RNA control, released to 45 units on adding MgCl2) |
| --- | --- | --- |
| AAGCCAGCTGCTTCCATTGGTGGGTCGTTTTTGCTGTCACCAGCAACATTGCCTCGTCTA [EF1a capture oligo without RNA] | 47 |  |
| AAGCCAGCTGCTTCCATTGGTGGGTCGTTTTTGCTGTCACCAGCAACATTGCCTCGTCTA [EF1a capture oligo:EF1a RNA hybrid] |  | 196 |
